We go through four substances from paper PMC6048507.

The stoichiometry N is the number of molecules, sites or subunits per partner or assembly.

Where two headings read alike, the source gives them in different places.

In experiment [1] the target is mavirus major capsid protein truncated at the C terminus (MCPΔC, res. 1–516), purified capsomer (mavirus). Nature of the experiment: crystal structure.
Experiment [2] has the same target.
Experiment [3] deals with mavirus penton protein (minor capsid protein, MV17), purified (mavirus). Nature of the experiment: crystal structure.
For experiment [4] the target is unchanged.
Experiment [5] addresses mavirus major capsid protein, full-length (flMCP), purified capsomer (mavirus). Nature of the experiment: crystal structure.
Experiment [6] has the same target.
The target in experiment [7] is mavirus cysteine protease (MVP) (mavirus).

As for “mavirus major capsid protein truncated at the C terminus (MCPΔC, res. 1–516), purified capsomer (domain or fragment)”, the stoichiometry N in experiment [1] and in experiment [2] was 3 throughout.
With “mavirus penton protein (minor capsid protein, MV17), purified (natural protein)”, the stoichiometry N in experiment [3] and in experiment [4] was 5 in each case.
For “mavirus major capsid protein, full-length (flMCP), purified capsomer (natural protein)”, the stoichiometry N in experiment [5] and in experiment [6] was 3 throughout.
Substance “mavirus cysteine protease (MVP) (enzyme)” registered a stoichiometry N in experiment [7] of 2.
